By stoichiometry N is commonly meant the number of molecules, sites or subunits per partner or assembly.

Experiment [1] addresses Protein disulfide isomerase A1 (PDI), recombinant wild type (human, UniProt P07237 18-508). Put plainly: non-reducing SDS-PAGE of a disulfide-linked complex.
The target of experiment [2] is T1, p47phox, recombinant wild type (human), P14598.
T1 chain: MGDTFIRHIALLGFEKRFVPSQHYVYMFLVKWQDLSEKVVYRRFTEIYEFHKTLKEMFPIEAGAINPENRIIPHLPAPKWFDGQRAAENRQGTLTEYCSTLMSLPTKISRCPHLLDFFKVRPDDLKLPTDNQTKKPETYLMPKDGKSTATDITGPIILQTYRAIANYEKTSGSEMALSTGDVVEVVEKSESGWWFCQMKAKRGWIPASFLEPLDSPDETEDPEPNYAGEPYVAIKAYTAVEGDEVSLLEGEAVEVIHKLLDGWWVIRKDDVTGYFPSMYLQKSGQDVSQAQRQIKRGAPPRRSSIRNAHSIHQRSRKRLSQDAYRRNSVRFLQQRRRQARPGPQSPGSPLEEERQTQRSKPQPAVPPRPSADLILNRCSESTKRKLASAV
The description is as above. The following applies: remark: other sources report otherwise.

Chain of Protein disulfide isomerase A1 (PDI), recombinant wild type (P07237 18-508): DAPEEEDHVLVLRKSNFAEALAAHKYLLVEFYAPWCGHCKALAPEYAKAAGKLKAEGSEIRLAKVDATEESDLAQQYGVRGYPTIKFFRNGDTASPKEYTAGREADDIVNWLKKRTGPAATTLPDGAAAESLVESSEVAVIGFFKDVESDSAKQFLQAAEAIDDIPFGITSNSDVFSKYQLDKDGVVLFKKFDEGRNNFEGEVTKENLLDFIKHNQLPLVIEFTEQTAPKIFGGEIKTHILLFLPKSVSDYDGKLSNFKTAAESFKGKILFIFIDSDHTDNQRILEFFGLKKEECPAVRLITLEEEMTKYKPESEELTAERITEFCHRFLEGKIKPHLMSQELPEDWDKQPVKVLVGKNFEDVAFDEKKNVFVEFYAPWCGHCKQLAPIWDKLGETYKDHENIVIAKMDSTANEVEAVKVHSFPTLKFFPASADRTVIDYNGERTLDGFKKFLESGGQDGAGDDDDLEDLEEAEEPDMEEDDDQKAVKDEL

B1: p47phox, recombinant wild type (natural protein, human, UniProt P14598 1-390, looked up)
chain: MGDTFIRHIALLGFEKRFVPSQHYVYMFLVKWQDLSEKVVYRRFTEIYEFHKTLKEMFPIEAGAINPENRIIPHLPAPKWFDGQRAAENRQGTLTEYCSTLMSLPTKISRCPHLLDFFKVRPDDLKLPTDNQTKKPETYLMPKDGKSTATDITGPIILQTYRAIANYEKTSGSEMALSTGDVVEVVEKSESGWWFCQMKAKRGWIPASFLEPLDSPDETEDPEPNYAGEPYVAIKAYTAVEGDEVSLLEGEAVEVIHKLLDGWWVIRKDDVTGYFPSMYLQKSGQDVSQAQRQIKRGAPPRRSSIRNAHSIHQRSRKRLSQDAYRRNSVRFLQQRRRQARPGPQSPGSPLEEERQTQRSKPQPAVPPRPSADLILNRCSESTKRKLASAV
Take B1: the binding result in experiment [1] is listed as “binds”. Moreover, the stoichiometry N in experiment [2] was determined as 2.

These data come from publication PMC6344286 (Arteriosclerosis, thrombosis, and vascular biology, 2019).
